According to PMC11154707, “Polymer-based antibody mimetics (iBodies) target human PD-L1 and function as a potent immune checkpoint blocker” (The Journal of Biological Chemistry, 2024):

How the values were obtained:
[1] = target: T1, recombinant human PD-L1 extracellular domain (residues 19–239), His-tagged (human, UniProt Q9NZQ7 19-239); test: ELISA; 100 ng/well rhPD-L1 coated directly on the plate (TBS, 1 h RT), casein block; dilution series of biotinylated binder in TBS with 0.1% Tween-20, 1 h RT; neutravidin-HRP, chemiluminescence; EC50 by 4-parameter logistic fit; details: both partners purified
T1 construct: programmed death-ligand 1 (PD-L1/CD274/B7-H1), human, extracellular domain residues 19-239, subcloned from pCMV3-full-length human PD-L1 into pTT28; probably removed on secretion (surmise); also called rhPD-L1; recombinant extracellular hPD-L1; source: HEK293-6E, transiently transfected, secreted, purified (Ni-NTA Agarose, dialysis); not shown: His8, C-terminal, kept

[2] = target: T2, human PD-L1, membrane-bound, on hPD-L1-transfected CHO cells (human, UniProt Q9NZQ7 19-290); test: flow cytometry on cells; dilution series on hPD-L1-transfected and wild-type CHO cells in PBS, 30 min at 4 °C; ATTO488 fluorescence; EC50 from MFI by 4-parameter logistic fit; details: one partner purified
T2 construct: The catalogue suffix -CH may mean a C-terminal His tag (surmise); also called CHO PD-L1; source: CHO cells, stably transfected (pCMV3-full-length human PD-L1, hygromycin selection), on cells

[3] = target: T1, recombinant human PD-L1 extracellular …; test: ELISA; 100 ng/well rhPD-L1 coated directly on the plate, casein block; dilution series of ATTO488-WL12 in TBS with 0.1% Tween-20, 1 h RT; read by ATTO488 fluorescence intensity; EC50 by 4-parameter logistic fit; details: both partners purified

T1 sequence (Q9NZQ7 19-239): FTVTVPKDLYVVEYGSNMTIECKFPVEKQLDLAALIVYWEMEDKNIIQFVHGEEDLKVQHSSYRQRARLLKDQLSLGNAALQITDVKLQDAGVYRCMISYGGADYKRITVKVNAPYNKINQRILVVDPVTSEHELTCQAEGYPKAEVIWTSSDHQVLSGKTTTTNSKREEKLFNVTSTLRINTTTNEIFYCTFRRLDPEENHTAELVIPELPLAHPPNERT
T2 sequence (Q9NZQ7 19-290): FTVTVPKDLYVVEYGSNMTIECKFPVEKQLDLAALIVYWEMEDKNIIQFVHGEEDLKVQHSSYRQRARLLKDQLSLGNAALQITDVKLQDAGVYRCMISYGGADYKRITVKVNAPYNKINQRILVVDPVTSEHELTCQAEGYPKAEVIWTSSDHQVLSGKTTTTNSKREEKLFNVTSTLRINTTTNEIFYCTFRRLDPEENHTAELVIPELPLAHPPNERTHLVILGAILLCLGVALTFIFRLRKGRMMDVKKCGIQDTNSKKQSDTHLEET

| Binder | EC50 [1] | EC50 [2] | EC50 [3] |
| --- | --- | --- | --- |
| YANPHLPWSWXXXCG (other, ClAc on the N-terminus (peptide cyclised, macrocyclic); MeAla at 2; Hyp at 7; Trp(Me) at 10; MeNle at 11 and 12; Orn at 13; C-terminal amide; amino group of the peptide bound to the HPMA copolymer) [iBody 1 (HPMA copolymer carrying WL12, ATTO488 and biotin)] | 0.29 nM | 6.6 nM |  |
| YANPHLPWSWXXXCG (ClAc on the N-terminus (peptide cyclised, macrocyclic); MeAla at 2; Hyp at 7; Trp(Me) at 10; MeNle at 11 and 12; Orn at 13; C-terminal amide; ATTO488 fluorophore (site not told in the text shown)) [ATTO488-WL12] |  | 270 nM | 5.3 nM |
